Measurements as given in doi:10.1101/2021.11.20.466133v3.

Experiments:
purified protein [1] = substrate: [H][C@@]1(O)[C@]2([H])OP(=O)(O)OC[C@@]3([H])O[C@@]([H])(n4cnc5c(N)ncnc54)[C@]([H])(O)[C@]3([H])OP(=O)(O)OC[C@@]2([H])O[C@@]1([H])n1cnc2c(N)ncnc21; assay: purified protein; settings: pH 7.5, 5 mM MgCl2
purified protein [2] = substrate: Nc1ncnc2c1ncn2[C@@H]1O[C@H](COP(=O)(O)OP(=O)(O)OP(=O)(O)O)[C@@H](O)[C@H]1O; assay: purified protein; settings: pH 7.5, 37 °C, 5 mM MgCl2

Protein | Km (purified protein [1]) [µM] | Km (purified protein [2]) [µM]
MsPDE (Mycolicibacterium smegmatis MC2 155) (protein) MPVTTTDPKTGLLTGPDAQIAGARVDARGAADLLTAASSVSVICHVYPDADTIGAGLALAQVLAASGKHVEVSFATPAQLPESLQSLPGGHLLVAPEAMRRDADLVVTVDIPSINRLGALSGLAGPGREVLVIDHHASNQLFGTANYIDPSADSTTMLVAELLDAWGKPIDEKVAHCLYAGLTTDTGSFRWATARAHRLAARLVELGVDNASISRTLLDTHPFAWLPMLSRVLATARLLPDALDGRGFVYAVVPHDEWSEARPEEVESIVDIVRTTQQAEVAAVFKEIEPMHWSVSMRAKSVNLASVASAFGGGGHPHAAGYSATGSADDVVQALARALG | 370 | –
MsDisA (Mycolicibacterium smegmatis MC2 155) (protein) MAVKSGARSGRNVVHLARPTLRETLGRLAPGTPLRDGLERILRGRTGALIVLGYDDSVEAICDGGFVLDVRYAPTRLRELSKMDGAVVLSSDGSRILRANVQLVPDPSIPTDESGTRHRSAERTAIQTGYPVISVSHSMSIVTVYVAGERHVVPDSATILSRANQTIATLERYKGRLDEVSRQLSTAEIEDFVTLRDVMTVVQRLEMVRRISLEIDADVVELGTDGRQLKLQLDELVGDNETARELIVRDYHANPDPPTAAQVAATLEELDSLSDSELLDFTVLARVFGYPSTAEAQDSAMSSRGYRAMAAIPRLQFAHVDLLVRSFGSLQNLLAASADDLQSVDGIGSMWARHIREGLSLLAESTIADRLA | – | 480
